Sequences and labels used below:
T1: BtBamA (Bt3725), B. thetaiotaomicron BamA with N-terminal His7 tag (B. thetaiotaomicron, UniProt Q8A1E1 20-885)
T1 sequence (looked up): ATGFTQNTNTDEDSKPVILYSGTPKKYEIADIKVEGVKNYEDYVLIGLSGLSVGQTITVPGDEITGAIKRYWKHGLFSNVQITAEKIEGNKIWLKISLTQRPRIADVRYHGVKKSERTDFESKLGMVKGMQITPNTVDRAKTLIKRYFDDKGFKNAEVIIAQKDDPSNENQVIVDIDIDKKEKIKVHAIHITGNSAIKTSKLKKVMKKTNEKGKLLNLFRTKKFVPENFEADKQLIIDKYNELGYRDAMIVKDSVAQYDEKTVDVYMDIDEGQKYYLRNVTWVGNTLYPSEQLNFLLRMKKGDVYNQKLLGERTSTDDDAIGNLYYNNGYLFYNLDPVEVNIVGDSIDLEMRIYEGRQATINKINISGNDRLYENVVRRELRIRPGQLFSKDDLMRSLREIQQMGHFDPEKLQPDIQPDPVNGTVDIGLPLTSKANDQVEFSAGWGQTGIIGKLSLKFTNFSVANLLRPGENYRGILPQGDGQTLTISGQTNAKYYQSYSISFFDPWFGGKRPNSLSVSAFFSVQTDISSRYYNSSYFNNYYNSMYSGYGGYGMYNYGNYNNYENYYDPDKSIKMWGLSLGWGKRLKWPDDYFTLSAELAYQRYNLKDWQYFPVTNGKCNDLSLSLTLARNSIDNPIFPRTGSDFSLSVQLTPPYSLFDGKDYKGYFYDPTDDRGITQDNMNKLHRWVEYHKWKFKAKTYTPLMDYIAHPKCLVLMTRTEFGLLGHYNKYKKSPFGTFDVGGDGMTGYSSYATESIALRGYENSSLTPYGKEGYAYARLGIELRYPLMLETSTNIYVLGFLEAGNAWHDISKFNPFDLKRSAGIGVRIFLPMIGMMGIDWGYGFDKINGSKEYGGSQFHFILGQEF

T2: BtBamI (Bt3727) (B. thetaiotaomicron (endogenous in B. …, UniProt Q8A1D9 22-493, lipid anchor cysteine)); O-glycosylation at 10 sites (Ser67 among them))
T2 sequence (looked up): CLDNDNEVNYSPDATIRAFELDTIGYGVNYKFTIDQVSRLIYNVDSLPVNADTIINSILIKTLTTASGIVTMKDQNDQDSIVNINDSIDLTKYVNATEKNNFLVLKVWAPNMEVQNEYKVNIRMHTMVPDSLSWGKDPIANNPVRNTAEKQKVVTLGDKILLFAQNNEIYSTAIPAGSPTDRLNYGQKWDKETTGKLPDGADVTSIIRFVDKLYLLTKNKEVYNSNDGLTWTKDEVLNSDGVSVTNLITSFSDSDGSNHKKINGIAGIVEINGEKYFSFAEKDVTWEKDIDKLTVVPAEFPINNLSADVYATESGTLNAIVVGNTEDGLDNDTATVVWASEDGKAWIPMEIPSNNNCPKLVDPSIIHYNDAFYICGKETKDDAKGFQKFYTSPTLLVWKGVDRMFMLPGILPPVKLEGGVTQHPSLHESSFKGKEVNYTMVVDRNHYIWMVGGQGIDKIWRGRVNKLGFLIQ

B1: BtBamH (Bt4306) (natural protein, UniProt Q89ZS0 18-542, looked up)
chain: CDDNTGGLGLGMFPGNDQNIKGKLSTFDVTTESVKTGDIYAKTNIGYIGKFTDETFGTYQAGFLAQLNCPDGLTFPEPYKEVTDASGNVISATGRMVVDDKDPENKDVTFIKDGNQIIGNIRAVELYLWYDSYFGDSLTACRLSVYELGGNGKETLNLDNAYYTDINPEDFYDSQNILGTKAYTAVDLSVKDSIRNLSTYVPSVHIAFKEDIATRVGGNILTAARKAKNADKEFNSQLFREAFQGIYVKSDYGDGTVLYIDQPQMNVVYKCYATDSITGKKLQKKDGSGKDSTYYSYRVFATTREVIQANQLKNDPERIDALIKEDKNTYLKSPAGIFTEATLPISDIQNELTGDTLNAVKLTFTNYNQTGDKKFGMAIPSTVMLVRKKFQDSFFKDNKLSDGVSSYLTSHTSSTNQYVFSNITKLVNACIAEKEEAKKNAGSSWDETKWLQENPDWNKVVLIPVLVTYDSSNTTTGQANIIRIQHDLKPGYVRLKGGSLGKTNPDYKLKLEVISTDFGLTTKSN
modifications: tri-acylated lipid anchor on the N-terminal cysteine; O-glycosylation (Ser309 among the sites)
B2: BtBamJ (Bt3612) (natural protein, UniProt Q8A1P7 20-196, looked up)
chain: CSETEEVGKYDNWRARNEAFIDSLANVYATASGRGGLERIEMLTAPGNYIYYKEMEPMTDHVVKAGNPKYTDYVKVYYKGTNILGEYFDGNFKGDNPVVDGKDPSEGDSPTTIFQVSGVITGWGEVLQRMEVGDRWKVYIPWDYAYGSSGTTGILGYSALVFDITLLDFANTEAELK
modifications: lipid anchor cysteine; O-glycosylation sites

What all share (test): cryo-EM structure; BtBAM complex co-purified through BamAhis from native membranes, in DDM, 8 mg/ml; two 3D classes (3.28 Å and 3.46 Å); AF2 models docked and refined
What all share (conditions): both partners purified

The target of assay [1] is T1, BtBamA (Bt3725), B. thetaiotaomicron ….
The assay “BtBamH (Bt4306)” addresses B1.
The target in another assay is T2, BtBamI (Bt3727).

With B1, the binding result in assay [1] is reported as “binds”.
For the molecule B2, the binding result with BtBamH (Bt4306) and in the assay with BtBamI (Bt3727) was “binds” throughout.

For the origin of these results see paper PMC12578637, “Structure of a distinct β-barrel assembly machinery complex in the Bacteroidota” (Nature Microbiology, 2025).
